As a reminder, the Kd is the concentration at which binding is half-saturated. By IC50 is commonly meant the concentration that inhibits the measured activity by half. Higher therefore signals lower potency. As usually defined, the EC50 (read off the curve) is the concentration needed to bring the measured effect to its halfway point.

Assay [1] deals with ECD-His tagged human ILT2 haplotype PE01 (human) (UniProt Q8NHL6). Nature of the assay: SPR, LILRA and LILRB family panel.
Assay [2] has as its target recombinant human LILRA3/ILT6 (Sino Biological 13549-H08H-100) (human) (UniProt Q8N6C8). In words: SPR, LILRA and LILRB family panel. (In general: Surface plasmon resonance follows binding to a sensor surface in real time, without labels.)
For assay [3], the target named is recombinant human LILRA1/LIR-6 (Sino Biological 17220-H08H-100) (human) (UniProt O75019). Nature of the assay: SPR, LILRA and LILRB family panel.
Assay [4] concerns the target human ILT2 extracellular and transmembrane domains expressed on CHO cells (human) (UniProt Q8NHL6). In words: flow cytometry, blocking of HLA-G-Fc-PE on CHO cells with high human ILT2. (Flow cytometry measures light scatter and fluorescence of single cells or particles in a stream.)
The target of assay [5] is full-length ILT2 expressed on Jurkat cells (human) (UniProt Q8NHL6). Nature of the assay: cell-based or functional assay.
Assay [6] concerns the target complement component C1q (Sigma/C1740-1 mg) (human) (UniProt P02745). In words: ELISA, antibody coated, C1q in solution, OD 450 nm. A general note: An ELISA detects its analyte on a solid surface through an enzyme-linked reagent.
Assay [7] shares this target. Nature of the assay: ELISA, antibody coated in a dilution series, C1q added at 2 µg/mL, biotinylated anti-C1q and streptavidin-HRP.
In assay [8] the target is human ILT2 extracellular and transmembrane domains expressed on CHO cells (human) (UniProt Q8NHL6). Nature of the assay: flow cytometry, CHO cells with low human ILT2.
Assay [9] has the same target. Nature of the assay: flow cytometry, CHO cells with high human ILT2.

Chain of human ILT2 extracellular and transmembrane domains expressed on CHO cells (human) (Q8NHL6 24-482 limits assumed): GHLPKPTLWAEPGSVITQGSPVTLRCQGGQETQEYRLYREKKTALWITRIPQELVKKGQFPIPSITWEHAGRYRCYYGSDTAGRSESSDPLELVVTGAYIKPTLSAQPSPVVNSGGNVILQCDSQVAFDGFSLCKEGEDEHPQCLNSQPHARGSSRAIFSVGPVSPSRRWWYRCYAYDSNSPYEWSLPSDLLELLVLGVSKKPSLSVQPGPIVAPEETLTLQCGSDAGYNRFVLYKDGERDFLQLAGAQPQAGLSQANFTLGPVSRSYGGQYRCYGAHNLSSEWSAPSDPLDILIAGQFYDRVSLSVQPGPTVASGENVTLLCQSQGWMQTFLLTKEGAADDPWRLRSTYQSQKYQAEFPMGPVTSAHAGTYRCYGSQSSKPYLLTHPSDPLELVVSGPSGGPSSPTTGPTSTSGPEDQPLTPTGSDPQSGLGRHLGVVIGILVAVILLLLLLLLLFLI
Chain of ECD-His tagged human ILT2 haplotype PE01 (human) (Q8NHL6 24-458): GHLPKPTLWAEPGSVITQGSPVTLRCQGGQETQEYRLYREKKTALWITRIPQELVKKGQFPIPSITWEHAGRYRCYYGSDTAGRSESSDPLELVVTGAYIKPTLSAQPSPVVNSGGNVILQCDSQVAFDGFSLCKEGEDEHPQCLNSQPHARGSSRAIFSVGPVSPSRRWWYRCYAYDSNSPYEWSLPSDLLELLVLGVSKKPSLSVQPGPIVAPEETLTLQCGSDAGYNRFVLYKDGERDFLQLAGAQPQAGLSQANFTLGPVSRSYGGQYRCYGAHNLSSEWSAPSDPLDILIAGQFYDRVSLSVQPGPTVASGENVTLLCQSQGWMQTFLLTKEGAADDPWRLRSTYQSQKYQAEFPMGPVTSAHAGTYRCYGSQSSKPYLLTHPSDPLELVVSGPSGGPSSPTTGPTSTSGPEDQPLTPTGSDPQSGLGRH
Chain of recombinant human LILRA1/LIR-6 (Sino Biological 17220-H08H-100) (human) (O75019 17-461 limits assumed): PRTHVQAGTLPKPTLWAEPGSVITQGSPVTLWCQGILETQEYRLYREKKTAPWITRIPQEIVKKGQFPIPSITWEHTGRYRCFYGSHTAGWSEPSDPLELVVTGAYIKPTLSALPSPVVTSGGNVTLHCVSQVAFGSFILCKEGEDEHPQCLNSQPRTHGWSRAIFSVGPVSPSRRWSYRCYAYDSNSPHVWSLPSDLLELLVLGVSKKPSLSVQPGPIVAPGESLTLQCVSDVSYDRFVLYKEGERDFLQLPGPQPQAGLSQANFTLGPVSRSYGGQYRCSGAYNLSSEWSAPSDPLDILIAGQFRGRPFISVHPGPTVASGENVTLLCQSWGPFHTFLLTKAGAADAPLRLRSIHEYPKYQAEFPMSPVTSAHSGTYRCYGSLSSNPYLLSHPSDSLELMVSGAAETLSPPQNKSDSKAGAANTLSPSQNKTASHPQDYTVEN
Chain of complement component C1q (Sigma/C1740-1 mg) (human) (P02745 23-245 limits assumed, chain 1 of 3): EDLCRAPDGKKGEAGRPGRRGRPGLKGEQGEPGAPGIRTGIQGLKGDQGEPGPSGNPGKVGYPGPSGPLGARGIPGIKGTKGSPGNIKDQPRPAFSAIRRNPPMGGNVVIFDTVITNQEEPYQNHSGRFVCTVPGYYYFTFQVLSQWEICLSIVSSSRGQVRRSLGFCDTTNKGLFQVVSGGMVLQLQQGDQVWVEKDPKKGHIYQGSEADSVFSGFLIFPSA
Chain of complement component C1q (Sigma/C1740-1 mg) (human) (P02746 28-253 limits assumed, chain 2 of 3, further chain): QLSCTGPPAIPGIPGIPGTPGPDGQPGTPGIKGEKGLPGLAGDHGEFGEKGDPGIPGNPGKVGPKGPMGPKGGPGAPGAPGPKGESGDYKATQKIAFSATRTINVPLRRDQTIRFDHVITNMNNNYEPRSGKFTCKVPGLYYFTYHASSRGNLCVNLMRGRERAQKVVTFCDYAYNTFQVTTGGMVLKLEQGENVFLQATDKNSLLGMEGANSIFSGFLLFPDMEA
Chain of complement component C1q (Sigma/C1740-1 mg) (human) (P02747 29-245 limits assumed, chain 3 of 3, further chain): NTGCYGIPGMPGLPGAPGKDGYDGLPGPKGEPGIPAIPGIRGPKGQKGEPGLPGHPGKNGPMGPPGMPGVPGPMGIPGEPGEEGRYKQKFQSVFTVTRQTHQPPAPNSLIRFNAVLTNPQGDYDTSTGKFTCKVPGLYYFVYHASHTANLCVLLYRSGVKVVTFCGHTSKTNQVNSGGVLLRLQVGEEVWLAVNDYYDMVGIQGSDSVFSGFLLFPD
Chain of recombinant human LILRA3/ILT6 (Sino Biological 13549-H08H-100) (human) (Q8N6C8 24-439 limits assumed): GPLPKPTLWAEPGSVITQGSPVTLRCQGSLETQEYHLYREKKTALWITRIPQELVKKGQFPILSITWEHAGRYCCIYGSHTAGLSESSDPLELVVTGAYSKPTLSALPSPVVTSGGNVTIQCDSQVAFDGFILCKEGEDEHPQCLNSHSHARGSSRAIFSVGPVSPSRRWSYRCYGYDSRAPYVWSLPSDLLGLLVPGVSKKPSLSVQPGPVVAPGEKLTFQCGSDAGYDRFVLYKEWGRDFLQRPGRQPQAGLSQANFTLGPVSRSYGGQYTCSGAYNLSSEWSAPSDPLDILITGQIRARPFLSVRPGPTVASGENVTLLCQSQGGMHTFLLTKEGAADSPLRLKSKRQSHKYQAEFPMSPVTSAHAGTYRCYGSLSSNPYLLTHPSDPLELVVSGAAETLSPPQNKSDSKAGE
Chain of full-length ILT2 expressed on Jurkat cells (human) (Q8NHL6 24-650): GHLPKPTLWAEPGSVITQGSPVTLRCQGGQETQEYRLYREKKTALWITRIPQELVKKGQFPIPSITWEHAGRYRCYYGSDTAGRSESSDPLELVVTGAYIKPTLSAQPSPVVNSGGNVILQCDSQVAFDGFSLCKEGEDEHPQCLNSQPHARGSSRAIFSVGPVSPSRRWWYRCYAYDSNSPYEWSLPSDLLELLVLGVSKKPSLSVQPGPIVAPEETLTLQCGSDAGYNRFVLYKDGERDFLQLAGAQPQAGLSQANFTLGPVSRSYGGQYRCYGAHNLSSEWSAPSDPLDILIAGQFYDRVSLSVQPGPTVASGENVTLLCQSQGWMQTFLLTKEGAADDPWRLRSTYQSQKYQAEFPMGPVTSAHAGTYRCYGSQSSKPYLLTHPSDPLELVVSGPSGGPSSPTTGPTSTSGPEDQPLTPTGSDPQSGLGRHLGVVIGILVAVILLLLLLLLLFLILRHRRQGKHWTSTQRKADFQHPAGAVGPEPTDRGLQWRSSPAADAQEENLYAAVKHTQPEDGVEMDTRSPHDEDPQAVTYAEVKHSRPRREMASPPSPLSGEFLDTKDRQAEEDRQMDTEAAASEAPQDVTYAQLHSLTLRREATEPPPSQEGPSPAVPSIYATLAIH

As for “1Q-G2 (Creative, #DCABH-4494) (antibody)”, the Kd in assay [1] is 1.7 nM; in assay [2], 13 nM; in assay [3] it was 5 nM.
For the substance 4F9 (Biorad, #MCA2515F) (antibody), the Kd worked out at 0.89 nM in [1], 26 nM in [2] and 40 nM in assay [3].
Taken in the same sequence, the figures for 238145 (Abcam, #EPR22861-6) (antibody) were 0.24 nM, < 0.1 nM and 0.81 nM.
As for “292305 (R&D Systems, #MAB20171) (antibody)”, the Kd in [1] amounted to 2.4 nM; in assay [2], 100 nM; in assay [3], 260 nM.
“HP-F1 (Invitrogen, #16-5129-82) (antibody)” returned a concentration for half-maximal inhibition (IC50) in [4] of 0.307 µg/mL. The same substance yielded a FcγRIIIa-NFAT luciferase signaling, Average AUC normalized to HP-F1 in assay [5] of 100. This substance displayed a FcγRIIIa-NFAT luciferase signaling, EC50 in [5] of 32.8 µg/mL. Also, the Kd in assay [1] is 3.6 nM; in [2], 15 nM; in [3], 7.2 nM.
In assay [6], “IgG4 isotype control (CrownBio/C00045-5) (antibody)” came in with an Average AUC of 0.5.
Turning to VMP55 (Novus, #NBP2-50475PE) (antibody), the figures for the Kd in assay [1], in assay [2] and in assay [3] were 0.15 nM, 6 nM and 32 nM, respectively.
In assay [7], “adalimumab (Myonex), an anti-TNFα IgG1 antibody” came in with an EC50 (read off the curve) of 3 µg/mL.
Turning to isotype control (VRC01 IgG4) (antibody), the AUC in assay [8] came to 542; in assay [9], 570.
In [6], “nivolumab (Evidentric GmbH), an anti-PD-1 IgG4 antibody” yielded an Average AUC of 0.52.

Source of the values: patent US20250109201A1.
